Numbering of substitutions follows the chain as printed. Names may count otherwise.
Legend:
[1] = biological target: AQP4 TM1 compound mutant (I43A/I47A/L50A/L51A/I57A), C-terminal GFP fusion (UniProt P55087); assay: BN-PAGE and Western blotting, densitometry; conditions: Triton X-100-solubilized protein from HEK293 cells; 3 experimental repeats; read off a plot
Target sequence in this assay (P55087 whole entry I47A/L50A/L51A/I57A, stated change not applied, the tested form may be a part): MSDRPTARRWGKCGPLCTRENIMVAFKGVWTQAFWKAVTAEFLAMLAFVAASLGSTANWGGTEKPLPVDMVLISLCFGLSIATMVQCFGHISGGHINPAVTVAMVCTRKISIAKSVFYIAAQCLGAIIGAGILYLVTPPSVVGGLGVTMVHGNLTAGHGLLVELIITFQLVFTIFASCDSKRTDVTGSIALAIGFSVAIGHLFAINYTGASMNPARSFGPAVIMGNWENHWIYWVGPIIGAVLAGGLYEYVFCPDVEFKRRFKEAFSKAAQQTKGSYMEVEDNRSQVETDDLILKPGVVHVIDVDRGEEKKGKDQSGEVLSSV

[2] = biological target: AQP4 TM1 compound mutant (I43A/I47A/L50A/L51A/I57A), C-terminal GFP fusion (UniProt P55087); assay: native gel or EMSA; BN-PAGE (8% bis-tris gel, pH 7.0, on ice) of whole-cell lysates of transfected HEK293 cells in 1% Triton X-100 BN lysis buffer, then immunoblot (anti-AQP4 or anti-GFP) and densitometry; self-association: tetramer, dimer, monomer bands
[3] = biological target: wild-type human AQP1 (human) (UniProt P29972); assay: as above
[4] = biological target: AQP4 I43A, C-terminal GFP fusion (UniProt P55087); assay: as above
[5] = biological target: AQP4 I43A, C-terminal GFP fusion (UniProt P55087); assay: BN-PAGE and Western blotting, densitometry; conditions: Triton X-100-solubilized protein from HEK293 cells; 3 experimental repeats; read off a plot
Target sequence in this assay (P55087 whole entry, stated change not applied, the tested form may be a part): as the sequence (P55087 whole entry I47A/L50A/L51A/I57A, stated change not applied, the tested form may be a part) above, with A47I, A50L, A51L, A57I counted along it

[6] = biological target: the molecule itself; assay: native gel or EMSA; BN-PAGE (8% bis-tris gel, pH 7.0, on ice) of whole-cell lysates of transfected HEK293 cells in 1% Triton X-100 BN lysis buffer, then immunoblot (anti-AQP4 or anti-GFP) and densitometry; self-association: tetramer, dimer, monomer bands

**Q.** For “wild-type human AQP4, C-terminal GFP fusion (from UniProt P55087) I43A; I47A; L50A; L51A; I57A”, which other: % tetrameric protein [1] is on record?
**A.** 100%

**Q.** Which stoichiometry N [2] does the source give for “AQP4 TM1 compound mutant (I43A/I47A/L50A/L51A/I57A), C-terminal GFP fusion (from UniProt P55087 1-323) (natural protein)” here?
**A.** 4

**Q.** “wild-type human AQP1 (from UniProt P29972 1-269) (natural protein)” was tested. Which stoichiometry N [3] did it give?
**A.** 4

**Q.** For “AQP4 I43A, C-terminal GFP fusion (from UniProt P55087 1-323) (natural protein)”, which stoichiometry N [4] is on record?
**A.** 4

**Q.** With “wild-type human AQP4, C-terminal GFP fusion (from UniProt P55087) I43A” as the molecule, how does the other: % tetrameric protein [5] read?
**A.** 100%

B1: AQP3 P181S/Y182K/N183R (natural protein, human, UniProt Q92482 1-292, looked up)
chain: MGRQKELVSRCGEMLHIRYRLLRQALAECLGTLILVMFGCGSVAQVVLSRGTHGGFLTINLAFGFAVTLGILIAGQVSGAHLNPAVTFAMCFLAREPWIKLPIYTLAQTLGAFLGAGIVFGLYYDAIWHFADNQLFVSGPNGTAGIFATYPSGHLDMINGFFDQFIGTASLIVCVLAIVDSKRNPVPRGLEAFTVGLVVLVIGTSMGFNSGYAVNPARDFGPRLFTALAGWGSAVFTTGQHWWWVPIVSPLLGSIAGVFVYQLMIGCHLEQPPPSNEEENVKLAHVKHKEQI
notes: aquaporin-3 (AQP3), human; DPYNN changed to DSKRN; The construct and its tag are not described; a GFP tag is surmised; also called AQP3 DSKRN mutant; source: HEK293, transfected, extracted with Triton X-100
**Q.** Which “stoichiometry N” value [6] does the source give for B1 here?
**A.** 2

B2: AQP3 P181E/Y182K/N183R (natural protein, human, UniProt Q92482 1-292, looked up)
chain: B1 chain with S181E
notes: aquaporin-3 (AQP3), human; DPYNN changed to DEKRN; The construct and its tag are not described; a GFP tag is surmised; also called AQP3 DEKRN mutant; source: HEK293, transfected, extracted with Triton X-100
**Q.** With B2 as the molecule, how does the “stoichiometry N” value [6] read?
**A.** 2

B3: wild-type AQP9 (natural protein, human, UniProt O43315 1-295, looked up)
chain: MQPEGAEKGKSFKQRLVLKSSLAKETLSEFLGTFILIVLGCGCVAQAILSRGRFGGVITINVGFSMAVAMAIYVAGGVSGGHINPAVSLAMCLFGRMKWFKLPFYVGAQFLGAFVGAATVFGIYYDGLMSFAGGKLLIVGENATAHIFATYPAPYLSLANAFADQVVATMILLIIVFAIFDSRNLGAPRGLEPIAIGLLIIVIASSLGLNSGCAMNPARDLSPRLFTALAGWGFEVFRAGNNFWWIPVVGPLVGAVIGGLIYVLVIEIHHPEPDSVFKTEQSEDKPEKYELSVIM
notes: aquaporin-9 (AQP9), human; The construct and its tag are not described; a GFP tag is surmised; source: HEK293, transfected, Triton X-100-extracted protein
**Q.** With B3 as the molecule, how does the “stoichiometry N” value [6] read?
**A.** 4

B4: wild-type AQP10 (natural protein, human, UniProt Q96PS8 1-301, looked up)
chain: MVFTQAPAEIMGHLRIRSLLARQCLAEFLGVFVLMLLTQGAVAQAVTSGETKGNFFTMFLAGSLAVTIAIYVGGNVSGAHLNPAFSLAMCIVGRLPWVKLPIYILVQLLSAFCASGATYVLYHDALQNYTGGNLTVTGPKETASIFATYPAPYLSLNNGFLDQVLGTGMLIVGLLAILDRRNKGVPAGLEPVVVGMLILALGLSMGANCGIPLNPARDLGPRLFTYVAGWGPEVFSAGNGWWWVPVVAPLVGATVGTATYQLLVALHHPEGPEPAQDLVSAQHKASELETPASAQMLECKL
notes: aquaporin-10 (AQP10), human; The construct and its tag are not described; a GFP tag is surmised; source: HEK293, transfected, Triton X-100-extracted protein
**Q.** With B4 as the molecule, how does the “stoichiometry N” value [6] read?
**A.** 4

Source: publication PMC4807272, “Structural Determinants of Oligomerization of the Aquaporin-4 Channel*” (The Journal of Biological Chemistry, 2016)
